Measurements reported in patent US20060257938A1, “Method of screening for drugs that block ligand binding to a lipid binding protein” (priority 2005, published 2006).
Positions count from the first letter of the chain named. Values joined by “and” are separate entries in the source; they are usually repeats but may differ in a detail not shown here. Equal entries are not always repeated.

B1: 119C, 72A (protein, listed as Rattus norvegicus)
chain: AFDGTWKVDRNENYEKFMEKMGINVVKRKLGAHDNLKLTITQEGNKFTVKESSNFRNIDVVFELGVDFAYSAADGTELTGTWTMEGNKLVGKFKRVDNGKELIAVREISGNELIQTYTCEGVEAKRIFKKE
modifications: PEPTIDE (1)...(131) wild-type rat intestinal fatty acid binding protein
B2: 102E, 72A (protein, listed as Rattus norvegicus)
chain: B1 chain with L102E, C119Y
modifications: PEPTIDE (1)...(131) wild-type rat intestinal fatty acid binding protein
B3: 119F, 72A (protein, listed as Rattus norvegicus)
chain: B1 chain with C119F
modifications: PEPTIDE (1)...(131) wild-type rat intestinal fatty acid binding protein
B4: 102G, 72A (protein, listed as Rattus norvegicus)
chain: B1 chain with L102G, C119Y
modifications: PEPTIDE (1)...(131) wild-type rat intestinal fatty acid binding protein
B5: 119H, 72A (protein, listed as Rattus norvegicus)
chain: B1 chain with C119H
modifications: PEPTIDE (1)...(131) wild-type rat intestinal fatty acid binding protein
B6: 119Q, 72A (protein, listed as Rattus norvegicus)
chain: B1 chain with C119Q
modifications: PEPTIDE (1)...(131) wild-type rat intestinal fatty acid binding protein
B7: 119S, 72A (protein, listed as Rattus norvegicus)
chain: B1 chain with C119S
modifications: PEPTIDE (1)...(131) wild-type rat intestinal fatty acid binding protein
B8: 11Y1, 72A (protein, listed as Rattus norvegicus)
chain: B1 chain with N11Y, C119Y
modifications: PEPTIDE (1)...(131) wild-type rat intestinal fatty acid binding protein
B9: 119V, 72A (protein, listed as Rattus norvegicus)
chain: B1 chain with C119V
modifications: PEPTIDE (1)...(131) wild-type rat intestinal fatty acid binding protein
B10: 126D, 72A (protein, listed as Rattus norvegicus)
chain: B1 chain with C119Y, R126D
modifications: PEPTIDE (1)...(131) wild-type rat intestinal fatty acid binding protein
B11: 119I, 72A (protein, listed as Rattus norvegicus)
chain: B1 chain with C119I
modifications: PEPTIDE (1)...(131) wild-type rat intestinal fatty acid binding protein
B12: 11G, 72A (protein, listed as Rattus norvegicus)
chain: B1 chain with N11G, C119Y
modifications: PEPTIDE (1)...(131) wild-type rat intestinal fatty acid binding protein
B13: 102H, 72A (protein, listed as Rattus norvegicus)
chain: B1 chain with L102H, C119Y
modifications: PEPTIDE (1)...(131) wild-type rat intestinal fatty acid binding protein
B14: 11Y1, L72A (protein, listed as Rattus norvegicus)
chain: B1 chain with N11Y, C119Y
modifications: PEPTIDE (1)...(131) wild-type rat intestinal fatty acid binding protein
B15: 119K, 72A (protein, listed as Rattus norvegicus)
chain: B1 chain with C119K
modifications: PEPTIDE (1)...(131) wild-type rat intestinal fatty acid binding protein
B16: 102F, 72A (protein, listed as Rattus norvegicus)
chain: B1 chain with L102F, C119Y
modifications: PEPTIDE (1)...(131) wild-type rat intestinal fatty acid binding protein
B17: 11C, 72A (protein, listed as Rattus norvegicus)
chain: B1 chain with N11C, C119Y
modifications: PEPTIDE (1)...(131) wild-type rat intestinal fatty acid binding protein
B18: 119T, 72A (protein, listed as Rattus norvegicus)
chain: B1 chain with C119T
modifications: PEPTIDE (1)...(131) wild-type rat intestinal fatty acid binding protein
B19: 119G, 72A (protein, listed as Rattus norvegicus)
chain: B1 chain with C119G
modifications: PEPTIDE (1)...(131) wild-type rat intestinal fatty acid binding protein
B20: 126A, 72A (protein, listed as Rattus norvegicus)
chain: B1 chain with C119Y, R126A
modifications: PEPTIDE (1)...(131) wild-type rat intestinal fatty acid binding protein

Assay: Probe fluorescence ratio response to arachidonic acid relative to ADIFAB2
Assay type: binding
Details: arachidonic acid; response relative to ADIFAB2
Text: (§1) In an alternate preferred embodiment, the protein is rI-FABP that has Ala substituted for Leu at position 72 (rI-FABP-L72A) with the resulting probe named ADIFAB2. […] Other probes useful in embodiments of the invention are shown in Tables 1-6 and are also described in U.S. application Ser. No. 11/085,792, filed Mar. 21, 2005 which is incorporated herein by reference. The indicated substitutions are with reference to the ADIFAB protein of SEQ ID NO: 2.
(§2) ADIFAB2 also has an altered spectral response, making it especially useful for measurements of FFAu in blood samples (Apple et al, Clinical Proteomics, (2004) 1:41-44, U.S. patent application Ser. No. 10/670,958). The wavelengths at the maximum intensities emitted by these fluorescently-labeled I-FABP's in the absence of FFA is about 420 to 480 nm. The emission wavelengths at the maximum intensities emitted by these fluorescently-labeled I-FABP's with FFA bound are between about 495 to 580 nm. Experiments typically involve measuring the fluorescence response within both emission maxima or at wavelengths for which the effect of interfering molecules such as hemoglobin can be eliminated as described in U.S. application Ser. No. 10/670958 and PCT/US2004/030521 and the calculation of the ratio ‘R’ of the two fluorescence intensities. The baseline value for this ratio, measured in the absence of analyte, is designated R0.
(§3) The intensity ratio (“R” value) is determined as follows. The ratio is calculated using the following formula: R=Fλ1/Fλ2 wherein, Fλ1 is the measured fluorescence intensities (intensity of sample with probe present minus intensity of sample without probe present) at wavelength 1 and Fλ2 is the measured fluorescence intensities (intensity of sample with probe present minus intensity of sample without probe present) at wavelength 2. Then, for a given probe, ΔR, the difference in R value between the measurement in the presence of the test compound (agent) and in the absence of the test compound (agent), is calculated as follows: ΔR=R+agent−R0 In some embodiments, the ΔR value may then be compared to some reference, for example, an agent with a known affinity for a given probe, by ΔR/ΔRreference. Measurements of fluorescence intensities are obtained using standard techniques.

Molecule	DR/DR AA
B1	1.06 and 1.063
B2	0.56
B3	0.93
B4	0.63
B5	0.71
B6	0.60
B7	0.78 and 0.781
B8	0.52
B9	0.99 and 0.750
B10	0.44
B11	1.01 and 0.920
B12	0.63
B13	0.52
B14	0.49
B15	0.78
B16	0.95 and 0.858
B17	0.52
B18	1.22
B19	0.83
B20	1.27

Assay: Probe fluorescence ratio response to linolenic acid relative to ADIFAB2
Assay type: binding
Details: response relative to ADIFAB2
Text: as §1, §2, §3

Molecule	DR/DR LNA
B1	1.00 and 1.001
B2	0.89
B3	0.93
B4	0.38
B5	0.67
B6	0.62
B7	0.73 and 0.734
B8	0.31
B9	1.00 and 0.710
B10	0.56
B11	1.06 and 0.940
B12	0.67
B13	0.63
B14	0.33
B15	0.78
B16	0.53 and 0.588
B17	0.64
B18	1.21
B19	0.81
B20	1.36

Assay: Probe fluorescence ratio response to linoleic acid relative to ADIFAB2
Assay type: binding
Details: response relative to ADIFAB2
Text: as §1, §2, §3

Molecule	DR/DR LA
B1	1.02 and 1.022
B2	0.65
B3	0.90
B4	0.78
B5	0.63
B6	0.58
B7	0.46 and 0.457
B8	0.33
B9	1.01 and 0.720
B10	0.59
B11	1.10 and 0.960
B12	0.70
B13	0.65
B14	0.32
B15	0.85
B16	0.73 and 0.657
B17	0.70
B18	1.22
B19	0.77
B20	1.32

Assay: Probe fluorescence ratio response to oleic acid relative to ADIFAB2
Assay type: binding
Details: response relative to ADIFAB2
Text: as §1, §2, §3

Molecule	DR/DR OA
B1	0.97 and 0.971
B2	0.60
B3	0.94
B4	0.65
B5	0.59
B6	0.60
B7	0.71 and 0.714
B8	0.16
B9	1.02 and 0.780
B10	0.64
B11	1.08 and 1.050
B12	0.62
B13	0.66
B14	0.16
B15	0.87
B16	0.64 and 0.554
B17	0.70
B18	1.26
B19	0.78
B20	1.38

Assay: Probe fluorescence ratio response to palmitic acid relative to ADIFAB2
Assay type: binding
Details: response relative to ADIFAB2
Text: as §1, §2, §3

Molecule	DR/DR PA
B1	0.35 and 0.355
B2	0.30
B3	0.69
B4	0.36
B5	0.32
B6	0.35
B7	0.37 and 0.373
B8	0.30
B9	0.57 and 0.480
B10	0.37
B11	0.69 and 0.720
B12	0.61
B13	0.37
B14	0.25
B15	0.58
B16	0.43 and 0.369
B17	0.80
B18	0.79
B19	0.46
B20	1.22
